T1: PDZD2_2, O15018
T1 sequence (O15018 329-429, limits assumed, looked up): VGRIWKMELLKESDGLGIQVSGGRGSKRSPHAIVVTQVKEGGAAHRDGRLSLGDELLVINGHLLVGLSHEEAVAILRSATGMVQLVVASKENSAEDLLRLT

T2: HTRA3, P83110
T2 sequence (P83110 354-453, limits assumed, looked up): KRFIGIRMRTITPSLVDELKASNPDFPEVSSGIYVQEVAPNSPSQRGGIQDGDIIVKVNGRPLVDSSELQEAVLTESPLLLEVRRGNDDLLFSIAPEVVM

T3: SNTA1, Q13424
T3 sequence (Q13424 82-180, limits assumed, looked up): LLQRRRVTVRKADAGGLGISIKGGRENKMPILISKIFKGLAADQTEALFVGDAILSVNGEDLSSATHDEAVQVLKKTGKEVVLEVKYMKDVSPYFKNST

T4: LNX2_3, Q8N448
T4 sequence (Q8N448 463-564, limits assumed, looked up): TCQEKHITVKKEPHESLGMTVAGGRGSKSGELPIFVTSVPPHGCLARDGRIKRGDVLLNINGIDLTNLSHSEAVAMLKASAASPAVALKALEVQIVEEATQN

T5: MPDZ_5, O75970
T5 sequence (O75970 695-796, limits assumed, looked up): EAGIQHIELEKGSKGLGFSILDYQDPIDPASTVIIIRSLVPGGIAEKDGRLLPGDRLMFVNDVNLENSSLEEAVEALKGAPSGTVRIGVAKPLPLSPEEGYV

T6: LIN7C, Q9NUP9
T6 sequence (Q9NUP9 88-185, limits assumed, looked up): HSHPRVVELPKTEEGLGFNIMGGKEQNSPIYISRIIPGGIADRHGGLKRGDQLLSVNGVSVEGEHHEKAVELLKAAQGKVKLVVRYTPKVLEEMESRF

T7: ARHGEF11, O15085
T7 sequence (O15085 42-136, limits assumed, looked up): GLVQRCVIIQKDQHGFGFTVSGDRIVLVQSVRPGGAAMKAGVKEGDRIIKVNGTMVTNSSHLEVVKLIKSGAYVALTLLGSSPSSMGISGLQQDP

T8: DLG3_1, Q92796
T8 sequence (Q92796 125-227, limits assumed, looked up): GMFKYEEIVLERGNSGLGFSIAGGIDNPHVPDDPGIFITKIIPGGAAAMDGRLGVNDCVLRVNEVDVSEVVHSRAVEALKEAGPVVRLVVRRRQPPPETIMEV

T9: PARD3B_1, Q8TEW8
T9 sequence (Q8TEW8 196-299, limits assumed, looked up): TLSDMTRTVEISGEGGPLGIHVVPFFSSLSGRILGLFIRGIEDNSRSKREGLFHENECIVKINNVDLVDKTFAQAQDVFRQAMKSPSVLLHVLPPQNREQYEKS

T10: TX1BP3, O14907
T10 sequence (O14907 10-122, limits assumed, looked up): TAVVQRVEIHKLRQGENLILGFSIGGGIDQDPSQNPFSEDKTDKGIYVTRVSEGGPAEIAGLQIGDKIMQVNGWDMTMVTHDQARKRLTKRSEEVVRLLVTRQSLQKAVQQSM

T11: DFNB31_2, Q9P202
T11 sequence (Q9P202 274-371, limits assumed, looked up): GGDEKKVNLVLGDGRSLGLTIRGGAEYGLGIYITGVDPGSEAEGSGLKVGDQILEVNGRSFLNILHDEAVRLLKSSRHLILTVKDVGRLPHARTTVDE

T12: GRIP1_7, Q9Y3R0
T12 sequence (Q9Y3R0 999-1096, limits assumed, looked up): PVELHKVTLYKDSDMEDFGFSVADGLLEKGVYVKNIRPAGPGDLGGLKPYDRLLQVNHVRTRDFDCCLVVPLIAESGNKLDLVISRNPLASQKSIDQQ


How the values were obtained:
Assay in all cases: holdup assay
Parameters in all cases: key: below the threshold = too weak to quantify, mostly under pKd 3.1 to 4
Details in all cases: plain residues with an end cap or a label only (N-terminal biotin on a linker: ado-ado)
PDZD2_2, O15018 = biological target: T1, PDZD2_2, O15018
HTRA3, P83110 = biological target: T2, HTRA3, P83110
FRMPD4, Q14CM0 = biological target: FRMPD4, Q14CM0
GRID2IP_2, A4D2P6 = biological target: GRID2IP_2, A4D2P6
TJP1_2, Q07157 = biological target: TJP1_2, Q07157
SNTA1, Q13424 = biological target: T3, SNTA1, Q13424
SCRIB_2, Q14160 = biological target: SCRIB_2, Q14160
GOPC, Q9HD26 = biological target: GOPC, Q9HD26
Inadl_1, Q8NI35 = biological target: Inadl_1, Q8NI35
LNX2_3, Q8N448 = biological target: T4, LNX2_3, Q8N448
LAP2, Q96RT1 = biological target: LAP2, Q96RT1
Inadl_5, Q8NI35 = biological target: Inadl_5, Q8NI35
NHERF2_2, Q15599 = biological target: NHERF2_2, Q15599
FRMPD2_2, Q68DX3 = biological target: FRMPD2_2, Q68DX3
MPDZ_5, O75970 = biological target: T5, MPDZ_5, O75970
LIN7C, Q9NUP9 = biological target: T6, LIN7C, Q9NUP9
ARHGEF11, O15085 = biological target: T7, ARHGEF11, O15085
DLG3_1, Q92796 = biological target: T8, DLG3_1, Q92796
GORASP2, Q9H8Y8 = biological target: GORASP2, Q9H8Y8
PARD3B_1, Q8TEW8 = biological target: T9, PARD3B_1, Q8TEW8
TX1BP3, O14907 = biological target: T10, TX1BP3, O14907
DFNB31_2, Q9P202 = biological target: T11, DFNB31_2, Q9P202
Inadl_3, Q8NI35 = biological target: Inadl_3, Q8NI35
GRIP1_7, Q9Y3R0 = biological target: T12, GRIP1_7, Q9Y3R0

NHERF2_2, Q15599, sequence (Q15599 142-238): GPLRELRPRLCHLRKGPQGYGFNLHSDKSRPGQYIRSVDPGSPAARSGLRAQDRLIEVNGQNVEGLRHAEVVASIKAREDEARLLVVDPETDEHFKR
GRID2IP_2, A4D2P6, sequence (A4D2P6 272-370): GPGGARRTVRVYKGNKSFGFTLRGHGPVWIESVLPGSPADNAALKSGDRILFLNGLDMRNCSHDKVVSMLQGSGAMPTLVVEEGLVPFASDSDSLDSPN
Inadl_1, Q8NI35, sequence (Q8NI35 113-229): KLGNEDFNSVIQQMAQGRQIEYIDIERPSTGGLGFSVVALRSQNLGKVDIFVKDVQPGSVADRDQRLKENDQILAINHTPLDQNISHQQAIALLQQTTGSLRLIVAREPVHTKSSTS
FRMPD4, Q14CM0, sequence (Q14CM0 67-160): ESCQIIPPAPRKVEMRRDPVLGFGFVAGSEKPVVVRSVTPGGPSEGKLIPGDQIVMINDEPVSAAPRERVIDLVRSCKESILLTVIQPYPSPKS
FRMPD2_2, Q68DX3, sequence (Q68DX3 944-1038): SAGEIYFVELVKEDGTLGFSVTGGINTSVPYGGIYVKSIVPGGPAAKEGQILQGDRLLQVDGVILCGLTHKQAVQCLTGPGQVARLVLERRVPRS
Inadl_5, Q8NI35, sequence (Q8NI35 673-780): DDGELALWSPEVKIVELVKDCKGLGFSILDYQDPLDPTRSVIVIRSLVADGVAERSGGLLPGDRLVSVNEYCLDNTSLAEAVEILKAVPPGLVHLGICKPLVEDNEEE
TJP1_2, Q07157, sequence (Q07157 181-274): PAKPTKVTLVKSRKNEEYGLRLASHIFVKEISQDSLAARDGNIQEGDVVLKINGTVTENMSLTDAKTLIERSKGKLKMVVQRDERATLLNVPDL
SCRIB_2, Q14160, sequence (Q14160 857-960): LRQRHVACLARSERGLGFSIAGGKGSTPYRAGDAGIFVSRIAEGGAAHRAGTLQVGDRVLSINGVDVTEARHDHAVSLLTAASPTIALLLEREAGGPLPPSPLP
Inadl_3, Q8NI35, sequence (Q8NI35 359-469): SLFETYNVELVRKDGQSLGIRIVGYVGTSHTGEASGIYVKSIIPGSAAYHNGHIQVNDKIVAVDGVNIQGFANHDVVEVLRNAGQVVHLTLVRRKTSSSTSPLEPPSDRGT
LAP2, Q96RT1, sequence (Q96RT1 other isoform, or with tags, fused parts or gaps): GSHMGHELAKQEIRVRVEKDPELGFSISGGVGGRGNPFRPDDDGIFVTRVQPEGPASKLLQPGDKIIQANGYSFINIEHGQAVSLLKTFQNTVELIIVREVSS

| Binder | pKd (PDZD2_2, O15018) | pKd (HTRA3, P83110) | pKd (FRMPD4, Q14CM0) | pKd (GRID2IP_2, A4D2P6) | pKd (TJP1_2, Q07157) | pKd (SNTA1, Q13424) | pKd (SCRIB_2, Q14160) | pKd (GOPC, Q9HD26) | pKd (Inadl_1, Q8NI35) | pKd (LNX2_3, Q8N448) | pKd (LAP2, Q96RT1) | pKd (Inadl_5, Q8NI35) | pKd (NHERF2_2, Q15599) | pKd (FRMPD2_2, Q68DX3) | pKd (MPDZ_5, O75970) | pKd (LIN7C, Q9NUP9) | pKd (ARHGEF11, O15085) | pKd (DLG3_1, Q92796) | pKd (GORASP2, Q9H8Y8) | pKd (PARD3B_1, Q8TEW8) | other results |
| --- | --- | --- | --- | --- | --- | --- | --- | --- | --- | --- | --- | --- | --- | --- | --- | --- | --- | --- | --- | --- | --- |
| DFKHTKSFII [JAM2, P57087] | 3.87 | 4.1 | below the threshold | below the threshold | below the threshold | below the threshold | below the threshold | below the threshold | below the threshold | below the threshold | below the threshold | below the threshold | below the threshold | below the threshold | below the threshold | below the threshold | below the threshold | below the threshold | 5.6 | 4.95 | pKd (TX1BP3, O14907): below the threshold; pKd (DFNB31_2, Q9P202): below the threshold; pKd (Inadl_3, Q8NI35): 4.45; pKd (GRIP1_7, Q9Y3R0): below the threshold |
| EFKQTSSFLV [JAM1, Q9Y624] | 3.72 | 4.16 | 3.76 | below the threshold | 4.01 | below the threshold | below the threshold | below the threshold | below the threshold | below the threshold | below the threshold | 3.53 | below the threshold | below the threshold | below the threshold | below the threshold | below the threshold | below the threshold | 4.83 | 4.72 | pKd (TX1BP3, O14907): below the threshold; pKd (DFNB31_2, Q9P202): below the threshold; pKd (Inadl_3, Q8NI35): 4.65; pKd (GRIP1_7, Q9Y3R0): below the threshold |
| PKSNSSKEYV [CLDN7, O95471] | 3.82 | 3.8 | below the threshold | below the threshold | below the threshold | below the threshold | below the threshold | 3.7 | below the threshold | below the threshold | below the threshold | below the threshold | below the threshold | below the threshold | below the threshold | 4.06 | below the threshold | below the threshold | 3.6 | below the threshold | pKd (TX1BP3, O14907): below the threshold; pKd (DFNB31_2, Q9P202): below the threshold; pKd (Inadl_3, Q8NI35): below the threshold; pKd (GRIP1_7, Q9Y3R0): below the threshold |
| GNDPDRGTSI [GRID2, O43424] | 4.76 | below the threshold | below the threshold | 4.16 | below the threshold | below the threshold | below the threshold | below the threshold | below the threshold | below the threshold | below the threshold | below the threshold | 3.66 | below the threshold | below the threshold | below the threshold | below the threshold | below the threshold | below the threshold | below the threshold | pKd (TX1BP3, O14907): below the threshold; pKd (DFNB31_2, Q9P202): below the threshold; pKd (Inadl_3, Q8NI35): below the threshold; pKd (GRIP1_7, Q9Y3R0): below the threshold |

Second part, led by results:

| pKd (PDZD2_2, O15018) | pKd (HTRA3, P83110) | pKd (FRMPD4, Q14CM0) | pKd (GRID2IP_2, A4D2P6) | pKd (TJP1_2, Q07157) | pKd (SNTA1, Q13424) | pKd (SCRIB_2, Q14160) | pKd (GOPC, Q9HD26) | pKd (Inadl_1, Q8NI35) | pKd (LNX2_3, Q8N448) | pKd (LAP2, Q96RT1) | pKd (Inadl_5, Q8NI35) | pKd (NHERF2_2, Q15599) | pKd (FRMPD2_2, Q68DX3) | pKd (MPDZ_5, O75970) | pKd (LIN7C, Q9NUP9) | pKd (ARHGEF11, O15085) | pKd (DLG3_1, Q92796) | pKd (GORASP2, Q9H8Y8) | pKd (PARD3B_1, Q8TEW8) | Binder | other results |
| --- | --- | --- | --- | --- | --- | --- | --- | --- | --- | --- | --- | --- | --- | --- | --- | --- | --- | --- | --- | --- | --- |
| 3.99 | below the threshold | below the threshold | below the threshold | 3.5 | below the threshold | below the threshold | below the threshold | below the threshold | below the threshold | 3.56 | below the threshold | below the threshold | below the threshold | below the threshold | below the threshold | below the threshold | below the threshold | below the threshold | below the threshold | SQPLLVHDDV [KIT, P10721] | pKd (TX1BP3, O14907): below the threshold; pKd (DFNB31_2, Q9P202): below the threshold; pKd (Inadl_3, Q8NI35): below the threshold; pKd (GRIP1_7, Q9Y3R0): below the threshold |
| 4.57 | below the threshold | below the threshold | 3.63 | below the threshold | 3.99 | below the threshold | 3.72 | below the threshold | below the threshold | below the threshold | below the threshold | below the threshold | below the threshold | below the threshold | below the threshold | 3.9 | below the threshold | 3.73 | below the threshold | KLQNPNQSVV [TYRP1, P17643] | pKd (TX1BP3, O14907): below the threshold; pKd (DFNB31_2, Q9P202): below the threshold; pKd (Inadl_3, Q8NI35): below the threshold; pKd (GRIP1_7, Q9Y3R0): below the threshold |
